Literature values, collected in publication PMC11276120.

Columns and labels:
[1] = target: PCNA (Saccharomyces cerevisiae) (UniProt P15873); test: NMR
PCNA (Homo sapiens) = PCNA (Homo sapiens) (UniProt P12004)
PCNA (Homo sapiens), sequence (P12004 whole entry): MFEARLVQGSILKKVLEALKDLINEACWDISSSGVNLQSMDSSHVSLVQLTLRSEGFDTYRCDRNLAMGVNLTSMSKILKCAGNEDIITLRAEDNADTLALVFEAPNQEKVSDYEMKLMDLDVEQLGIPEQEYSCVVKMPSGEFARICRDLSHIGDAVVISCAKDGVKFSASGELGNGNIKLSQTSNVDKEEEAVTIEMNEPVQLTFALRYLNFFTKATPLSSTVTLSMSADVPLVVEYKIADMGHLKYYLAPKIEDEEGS

Rev1 BRCT, sequence (P12689 158-252): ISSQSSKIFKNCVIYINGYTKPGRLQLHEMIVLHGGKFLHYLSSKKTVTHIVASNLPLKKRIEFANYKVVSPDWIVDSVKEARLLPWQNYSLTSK
p21WAF1/CIP1 PIP-box, sequence (P38936 139-160): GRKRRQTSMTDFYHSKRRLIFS
PCNA (Saccharomyces cerevisiae), sequence (P15873 whole entry): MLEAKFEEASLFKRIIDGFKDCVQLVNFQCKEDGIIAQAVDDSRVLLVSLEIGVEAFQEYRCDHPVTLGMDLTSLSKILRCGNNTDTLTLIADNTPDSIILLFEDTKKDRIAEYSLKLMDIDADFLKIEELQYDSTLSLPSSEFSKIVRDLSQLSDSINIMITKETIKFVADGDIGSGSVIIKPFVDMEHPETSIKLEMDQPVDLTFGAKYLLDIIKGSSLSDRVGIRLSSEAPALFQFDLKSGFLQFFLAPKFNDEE

## Rev1 BRCT (from UniProt P12689)
[1]
  Kd: 79 µM

## p21WAF1/CIP1 PIP-box (from UniProt P38936)
PCNA (Homo sapiens)
  Kd: 0.08 µM
